Key:
Experiment in all cases: cell-based or functional assay
[1] = molecular target: HIV Env, isolate 1006_11_C3_1601 (HIV)
[2] = molecular target: HIV Env, isolate 1054_07_TC4_1499 (HIV)
[3] = molecular target: HIV Env, isolate CAAN5342.A2 (HIV)
[4] = molecular target: HIV Env, isolate SC05_8C11_2344 (HIV)
HIV Env, isolate TRO.11 = HIV Env, isolate TRO.11 (HIV)
[5] = molecular target: HIV Env, isolate WITO4160.33 (HIV)
HIV Env, isolate CNE17 = HIV Env, isolate CNE17 (HIV)
HIV Env, isolate CNE19 = HIV Env, isolate CNE19 (HIV)
HIV Env, isolate CNE58 = HIV Env, isolate CNE58 (HIV)
HIV Env, isolate 249MB10 = HIV Env, isolate 249MB10 (HIV)
[6] = molecular target: HIV Env, isolate Ce1172_H1 (HIV)
[7] = molecular target: HIV Env, isolate Ce1176_A3 (HIV)
[8] = molecular target: HIV Env, isolate Ce703010054_2A2 (HIV)
[9] = molecular target: HIV Env, isolate Ce704809221_1B3 (HIV)
[10] = molecular target: HIV Env, isolate Du172.17 (HIV)
[11] = molecular target: HIV Env, isolate HIV-001428-2.42 (HIV)
[12] = molecular target: HIV Env, isolate HIV-16055-2.3 (HIV)
[13] = molecular target: HIV Env, isolate ZM53M.PB12 (HIV)
[14] = molecular target: HIV Env, isolate 3817.v2.c59 (HIV)
[15] = molecular target: HIV Env, isolate 6480.v4.c25 (HIV)
[16] = molecular target: HIV Env, isolate 6811.v7.c18 (HIV)
[17] = molecular target: HIV Env, isolate 6952.v1.c20 (HIV)
HIV Env, isolate 6535.3 = HIV Env, isolate 6535.3 (HIV)
[18] = molecular target: HIV Env, isolate P1981_C5_3 (HIV)
[19] = molecular target: HIV Env, isolate X1193_C1 (HIV)
[20] = molecular target: HIV Env, isolate X1254_C3 (HIV)
[21] = molecular target: HIV Env, isolate X1632_S2_B10 (HIV)
[22] = molecular target: HIV Env, isolate 6240_08_TA5_4622 (HIV)

| Binder | IC80 (µg/ml) with constrains [1] [µg/mL] | IC80 (µg/ml) with constrains [2] [µg/mL] | IC80 (µg/ml) with constrains [3] [µg/mL] | IC80 (µg/ml) with constrains [4] [µg/mL] | IC80 (µg/ml) with constrains (HIV Env, isolate TRO.11) [µg/mL] | IC80 (µg/ml) with constrains [5] [µg/mL] | IC80 (µg/ml) with constrains (HIV Env, isolate CNE17) [µg/mL] | IC80 (µg/ml) with constrains (HIV Env, isolate CNE19) [µg/mL] | IC80 (µg/ml) with constrains (HIV Env, isolate CNE58) [µg/mL] | IC80 (µg/ml) with constrains (HIV Env, isolate 249MB10) [µg/mL] | IC80 (µg/ml) with constrains [6] [µg/mL] | IC80 (µg/ml) with constrains [7] [µg/mL] | IC80 (µg/ml) with constrains [8] [µg/mL] | IC80 (µg/ml) with constrains [9] [µg/mL] | IC80 (µg/ml) with constrains [10] [µg/mL] | IC80 (µg/ml) with constrains [11] [µg/mL] | IC80 (µg/ml) with constrains [12] [µg/mL] | IC80 (µg/ml) with constrains [13] [µg/mL] | IC80 (µg/ml) with constrains [14] [µg/mL] | IC80 (µg/ml) with constrains [15] [µg/mL] | other results |
| --- | --- | --- | --- | --- | --- | --- | --- | --- | --- | --- | --- | --- | --- | --- | --- | --- | --- | --- | --- | --- | --- |
| ePGDM5 (antibody, V domains shown) VH: QAQLVQSGPEVRKPGTSVKVSCKNPGNTLTTYDLHWVRQVPGQGLQWMGWISHEGDKKVIVERFKAKVTIDWDRSTNTAYLQLSGLTSEDTAVYYCAKGSKHRLRDYALYDEDGALNWAVDVDYLANLEFWGQGTAVTVSS VL: DFVLTQSPLSLSVTPGESASISCKSDHSLQHGDRNNYLAWYVQKPGRSPQLLIDLASERASGVPDRFSGSGSRKDFTLKIDRVEAEDVGTYYCMQGRESPWTFGQGTKVDIK | 1.89 | > 100 | > 100 | 14.5 | 1.26 | 0.015 | 0.028 | 0.012 | 0.015 | 0.045 | 0.065 | 0.088 | 0.034 | 0.749 | 5.98 | 0.013 | 0.007 | 0.022 | 0.929 | > 100 | IC80 (µg/ml) with constrains [16]: > 100 µg/mL; IC80 (µg/ml) with constrains [17]: 0.132 µg/mL; IC80 (µg/ml) with constrains (HIV Env, isolate 6535.3): > 100 µg/mL; IC80 (µg/ml) with constrains [18]: 1.18 µg/mL; IC80 (µg/ml) with constrains [19]: 0.156 µg/mL; IC80 (µg/ml) with constrains [20]: 0.869 µg/mL; IC80 (µg/ml) with constrains [21]: 0.012 µg/mL; IC80 (µg/ml) with constrains [22]: 8.09 µg/mL |
| PGDM1400 (antibody, V domains shown) VH: QVHLTQSGPEVRKPGTSVKVSCKAPGNTLKTYDLHWVRSVPGQGLQWMGWISHEGDKKVIVERFKAKVTIDWDRSTNTAYLQLSGLTSGDTAVYYCAKGSKHRLRDYALYDDDGALNWAVDVDYLSNLEFWGQGTAVTVSS VL: DFVLTQSPHSLSVTPGESASISCKSSHSLIHGDRNNYLAWYVQKPGRSPQLLIYLASSRASGVPDRFSGSGSDKDFTLKISRVETEDVGTYYCMQGRESPWTFGQGTKVDIK | 7.43 | > 100 | > 100 | 17.8 | 0.823 | 0.013 | 0.018 | 0.019 | 0.01 | 0.085 | 0.872 | 2.1 | 0.057 | 1.28 | 21.7 | 0.054 | 0.013 | 0.034 | > 100 | > 100 | IC80 (µg/ml) with constrains [16]: > 100 µg/mL; IC80 (µg/ml) with constrains [17]: 7.03 µg/mL; IC80 (µg/ml) with constrains (HIV Env, isolate 6535.3): > 100 µg/mL; IC80 (µg/ml) with constrains [18]: 75.6 µg/mL; IC80 (µg/ml) with constrains [19]: 0.374 µg/mL; IC80 (µg/ml) with constrains [20]: > 100 µg/mL; IC80 (µg/ml) with constrains [21]: 0.135 µg/mL; IC80 (µg/ml) with constrains [22]: > 100 µg/mL |
| ePGDM13 (antibody, V domains shown) VH: QAQLVQSGPEVRKPGTSVKVSCKNPGNTLTTYDLHWVRQVPGQGLQWMGWISHEGDKKVIVERFKAKVTIDWDRSTNTAYLQLSGLTSEDTAVYYCAKGSKHRLRDYALYDEDGALNWAVDVDYLANLEFWGQGTAVTVSS VL: DIVLTQSPLSLSVTPGESASISCKSSHSLQHGDRNNYLAWYVQKPGRSPQLLLDLASERASGVPDRFSGSGSEKDFTLKISRVETEDVGTYYCMQGRESPWTFGQGTKVDIK | 3.3 | > 100 | > 100 | 9.44 | 1.41 | 0.013 | 0.031 | 0.013 | 0.014 | 0.13 | 0.242 | 0.124 | 0.031 | 1.36 | 6 | 0.011 | 0.011 | 0.022 | 55.9 | > 100 | IC80 (µg/ml) with constrains [16]: > 100 µg/mL; IC80 (µg/ml) with constrains [17]: 0.318 µg/mL; IC80 (µg/ml) with constrains (HIV Env, isolate 6535.3): > 100 µg/mL; IC80 (µg/ml) with constrains [18]: 1.28 µg/mL; IC80 (µg/ml) with constrains [19]: 0.381 µg/mL; IC80 (µg/ml) with constrains [20]: 2.07 µg/mL; IC80 (µg/ml) with constrains [21]: 0.013 µg/mL; IC80 (µg/ml) with constrains [22]: 12.6 µg/mL |

From US20230134571A1 (INTERNATIONAL AIDS VACCINE INITIATIVE, published 2023)
